Ends that are not written are not given here.
Experiments:
[1] = target: capsid protein of SIV (SIV)
[2] = target: capsid protein of HIV-2 (HIV-2)
[3] = target: HIV-1 major capsid protein (p24) (HIV-1) (UniProt P04591)
[4] = target: HIV-1 major capsid protein (p24) (HIV-1) (UniProt P04591); remark: listed apart in the source
[5] = target: HIV-1 major capsid protein (p24) (HIV-1) (UniProt P04591); remark: listed apart in the source
[6] = target: HIV-1 major capsid protein (p24) (HIV-1) (UniProt P04591); assay: equilibrium dialysis of 10 µM recombinant protein against 27.5 µM 14C-GPG-NH2, scintillation counting; ratio to the dialysis buffer
[7] = target: HIV-1 major capsid protein (p24) (HIV-1) (UniProt P04591); remark: listed apart in the source
[8] = target: HIV-1 major capsid protein (p24) (HIV-1) (UniProt P04591); remark: listed apart in the source
[9] = target: T1, HIV-1 major capsid protein (p24) (HIV-1, UniProt P04591); assay: cell-based or functional assay
[10] = target: T1, HIV-1 major capsid protein (p24); assay: cell-based or functional assay; remark: listed apart in the source

## Gly-Lys-Gly-NH2 (peptide)
[1]
  Day 10 RT, SIV (OD of reverse transcriptase activity in the supernatant of infected H9 cells): 0.099 OD
[2]
  Day 10 RT, HIV-2 (OD of reverse transcriptase activity in the supernatant of infected H9 cells): 0.147 OD

## Cys-Gln-Gly-NH2 (peptide)
[1]
  Day 10 RT, SIV (OD of reverse transcriptase activity in the supernatant of infected H9 cells): 0.11 OD
[2]
  Day 10 RT, HIV-2 (OD of reverse transcriptase activity in the supernatant of infected H9 cells): 0.296 OD

## Gly-Pro-Gly-NH2 (peptide)
[3]
  p24 (pg/ml) in the supernatant of HIV-1 infected HUT78 cells, day 7, reduction (%): 97%
[4]
  p24 pg/ml in the supernatant of MT-2 cells infected with HIV-1 Bru wild type or the V3 loop GPG-deleted mutants mp8 and mp10, reduction %: 93%
[1]
  Day 10 RT, SIV (OD of reverse transcriptase activity in the supernatant of infected H9 cells): 0.103 OD
[5]
  Day 10 RT, HIV-1 (OD of reverse transcriptase activity in the supernatant of infected H9 cells); HIV-1 syncytia: 0.074 OD
[2]
  Day 10 RT, HIV-2 (OD of reverse transcriptase activity in the supernatant of infected H9 cells): 0.145 OD
[6]
  times buffer: 7.55 times buffer
[7]
  p24 antigen in the supernatant of HIV-1 infected H9 cells, day 7, reduction (%): 100%
[8]
  HIV-1 p24 (pg/ml) in the supernatant of PBMC infected with AZT- or Ritonavir-resistant HIV-1 isolates, 14 days post infection, 100 µM peptide: < 500 pg/mL

B1: Ser-Pro-Thr-NH2 (peptide)
peptide: Ser-Pro-Thr-NH2
[9]
  p24 (pg/ml) in the supernatant of HIV-1 infected HUT78 cells, day 7, 100 µM peptide, reduction (%): 25%

B2: ACQ-NH2 (peptide)
peptide: Ala-Cys-Gln-NH2
[10]
  Day 10 RT, HIV-1 (OD of reverse transcriptase activity in the supernatant of infected H9 cells); HIV-1 syncytia: 2.83 OD

B3: Lys-Gln-Gly-NH2 (peptide)
peptide: Lys-Gln-Gly-NH2
[9]
  p24 (pg/ml) in the supernatant of HIV-1 infected HUT78 cells, day 7, 100 µM peptide, reduction (%): 99%

B4: Gly-Val-Gly-NH2 (peptide)
peptide: Gly-Val-Gly-NH2
[9]
  p24 (pg/ml) in the supernatant of HIV-1 infected HUT78 cells, day 7, 100 µM peptide, reduction (%): 25%

B5: KAL-NH2 (peptide)
peptide: Lys-Ala-Leu-NH2
[10]
  Day 10 RT, HIV-1 (OD of reverse transcriptase activity in the supernatant of infected H9 cells); HIV-1 syncytia: 2.79 OD

B6: Val-Gly-Gly-NH2 (peptide)
peptide: Val-Gly-Gly-NH2
[9]
  p24 (pg/ml) in the supernatant of HIV-1 infected HUT78 cells, day 7, 100 µM peptide, reduction (%): 50%

B7: GHK-NH2 (peptide)
peptide: Gly-His-Lys-NH2
[10]
  Day 10 RT, HIV-1 (OD of reverse transcriptase activity in the supernatant of infected H9 cells); HIV-1 syncytia: 3.01 OD

B8: Ala-Leu-Gly-NH2 (peptide)
peptide: Ala-Leu-Gly-NH2
[9]
  p24 (pg/ml) in the supernatant of HIV-1 infected HUT78 cells, day 7, 100 µM peptide, reduction (%): 100%

B9: GPQ-NH2 (peptide)
peptide: Gly-Pro-Gln-NH2
[10]
  Day 10 RT, HIV-1 (OD of reverse transcriptase activity in the supernatant of infected H9 cells); HIV-1 syncytia: 2.85 OD

B10: GAT-NH2 (peptide)
peptide: Gly-Ala-Thr-NH2
[10]
  Day 10 RT, HIV-1 (OD of reverse transcriptase activity in the supernatant of infected H9 cells); HIV-1 syncytia: 2.8 OD

B11: LKA-NH2 (peptide)
peptide: Leu-Lys-Ala-NH2
[10]
  Day 10 RT, HIV-1 (OD of reverse transcriptase activity in the supernatant of infected H9 cells); HIV-1 syncytia: 2.99 OD

B12: ARV-NH2 (peptide)
peptide: Ala-Arg-Val-NH2
[10]
  Day 10 RT, HIV-1 (OD of reverse transcriptase activity in the supernatant of infected H9 cells); HIV-1 syncytia: 2.83 OD

B13: ILK-NH2 (peptide)
peptide: Ile-Leu-Lys-NH2
[10]
  Day 10 RT, HIV-1 (OD of reverse transcriptase activity in the supernatant of infected H9 cells); HIV-1 syncytia: 2.95 OD

B14: Ala-Ser-Gly-NH2 (peptide)
peptide: Ala-Ser-Gly-NH2
[9]
  p24 (pg/ml) in the supernatant of HIV-1 infected HUT78 cells, day 7, 100 µM peptide, reduction (%): 25%

B15: Ser-Leu-Gly-NH2 (peptide)
peptide: Ser-Leu-Gly-NH2
[9]
  p24 (pg/ml) in the supernatant of HIV-1 infected HUT78 cells, day 7, 100 µM peptide, reduction (%): 99%

B16: KAR-NH2 (peptide)
peptide: Lys-Ala-Arg-NH2
[10]
  Day 10 RT, HIV-1 (OD of reverse transcriptase activity in the supernatant of infected H9 cells); HIV-1 syncytia: 2.93 OD

B17: Arg-Gln-Gly-NH2 (peptide)
peptide: Arg-Gln-Gly-NH2
[9]
  p24 (pg/ml) in the supernatant of HIV-1 infected HUT78 cells, day 7, 100 µM peptide, reduction (%): 99%

B18: HKA-NH2 (peptide)
peptide: His-Lys-Ala-NH2
[10]
  Day 10 RT, HIV-1 (OD of reverse transcriptase activity in the supernatant of infected H9 cells); HIV-1 syncytia: 2.79 OD

Reference: patent publication US6258932, “Peptides that block viral infectivity and methods of use thereof” (Tripep AB, dated 2001)
